As a reminder, the % inhibition is the drop in the measured response relative to a control, in per cent. Low readings indicate a weak effect, high ones a strong effect.

The target of assay [1] is HLA-Cw*1802 (human) (UniProt P10321). The assay is described as follows: Luminex beads; MAb 1/1600; competitor rHLA-E.
The target in assay [2] is HLA-A*2901 (A29) (human) (UniProt P04439). The assay is described as follows: Luminex single-antigen beads; MEM-E/02 1/600; serum Mi114 1/100.
Assay [3] addresses HLA-Cw*1802 (Cw18) (human) (UniProt P10321). The assay is described as above.
In assay [4] the target is HLA-B*5001 (B50) (human). The description is as above.
Assay [5] deals with HLA-B*6701 (B67) (human) (UniProt P01889). The assay is described as above.
Assay [6] has as its target HLA-B*4403 (B44) (human). The description is as above.
The target of assay [7] is HLA-A*2501 (A25) (human). The description is as above.
The target of assay [8] is HLA-Cw*1502 (Cw15) (human). The assay is described as above.
Assay [9] concerns the target HLA-B*5401 (B54) (human) (UniProt P01889). The description is as above.
Assay [10] addresses HLA-B*1301 (B13) (human). Described as above.
Assay [11] concerns the target HLA-B*1511 (B75) (human) (UniProt P01889). The assay is described as above.
Assay [12] addresses HLA-B*5801 (B58) (human). Described as above.
The target in assay [13] is HLA-A*3002 (A30) (human) (UniProt P04439). Described as above.
The target in assay [14] is HLA-B*3901 (B39) (human) (UniProt P01889). Described as above.
Assay [15] addresses HLA-B*1401 (B64) (human) (UniProt P01889). Described as above.
The target of assay [16] is HLA-B*5201 (B52) (human). The assay is described as above.
Assay [17] deals with HLA-B*1801 (B18) (human). The assay is described as above.
Assay [18] has as its target HLA-B*5301 (B53) (human). The assay is described as above.
For assay [19], the target named is HLA-Cw*0801 (Cw8) (human) (UniProt P10321). Described as above.
Assay [20] concerns the target HLA-A*2601 (A26) (human). The assay is described as above.
The target in assay [21] is HLA-B*5901 (B59) (human). The assay is described as above.
Assay [22] has as its target HLA-A*2403 (A24) (human). Described as above.
For assay [23], the target named is HLA-Cw*0304 (human). The assay is described as above.
In assay [24] the target is HLA-Cw*1203 (Cw12) (human) (UniProt P10321). Described as above.
The target in assay [25] is HLA-B*4801 (B48) (human) (UniProt P01889). Described as above.
Assay [26] addresses HLA-B*2708 (B27) (human) (UniProt P01889). Described as above.
The target of assay [27] is HLA-Cw*1701 (Cw17) (human). Described as above.
Assay [28] concerns the target HLA-Cw*0401 (Cw4) (human). The description is as above.
In assay [29] the target is HLA-B*0801 (B8) (human) (UniProt P01889). Described as above.
The target in assay [30] is HLA-A*3301 (A33) (human). Described as above.
The target in assay [31] is HLA-B*1513 (B77) (human). Described as above.
The target in assay [32] is HLA-A*2402 (A24) (human) (UniProt P04439). Described as above.
Assay [33] deals with HLA-B*3801 (B38) (human). The assay is described as above.
For assay [34], the target named is HLA-B*4501 (B45) (human). Described as above.
In assay [35] the target is HLA-A*3201 (A32) (human). The assay is described as above.
Assay [36] addresses HLA-A*3201 (A32) (human). The assay can be described thus: Luminex single-antigen beads; rank of MEM-E/02 reactivity among HLA-Ia alleles.

“murine monoclonal antibody (MAb) MEM-E/02” showed an MFI in assay [1] of 30 MFI.
Turning to murine monoclonal antibody MAb MEM-E/02, the MFI in assay [2], in assay [3], in [4], in assay [5], in assay [6] and in [7] was below 500 MFI in each case. The MFI in assay [8] was below 500 MFI; in assay [9], 990 MFI; in assay [10], below 500 MFI; in assay [11], below 500 MFI; in assay [12], 2110 MFI; in [13] it was 803 MFI. In addition, the MFI in [14] was 530 MFI; in assay [15] it was below 500 MFI; in [17] it was below 500 MFI; in assay [18] it was below 500 MFI; in assay [19], below 500 MFI; in [20] it was below 500 MFI. For the same substance, the MFI in assay [21] is 930 MFI; in assay [22], below 500 MFI; in assay [23] it was below 500 MFI; in [24], below 500 MFI; in assay [25], 969 MFI; in assay [26] it was 2260 MFI. The MFI in assay [27] was below 500 MFI; in [28], below 500 MFI; in assay [29] it was below 500 MFI; in assay [30], below 500 MFI; in assay [31], 1550 MFI; in assay [32], below 500 MFI. The MFI in [33] is 929 MFI; in [34], below 500 MFI; in assay [35] it was 742 MFI. For the same substance, the % inhibition in assay [9] came out at 95%; in assay [12], 37%; in assay [16] it was 88%; in assay [26], 29%; in [33] it was 76%. In assay [36], this substance returned an MEM-E/02 Reactivity Rank above 65 rank.

Source of the values: patent US20120171195A1.
